Measurements from PMC5291249.
Values joined by “and” are separate entries in the source; they are usually repeats but may differ in a detail not shown here. Equal values may be shown once. Read-outs that look alike come from different tables or passages of the source.

Key:
Assay in all cases: cross-linking; glutaraldehyde cross-linking (0.01-0.5%, 0.025% chosen as optimal) of recombinant p53 in solution without DNA, 25°C, Tris or HEPES buffer pH 7.5, 100 mM NaCl, then 4-12% MOPS SDS-PAGE (coomassie, silver stain or immunoblot)
[1] = target: murine p53 mutant with the double substitution M340Q/L344R (murine) (UniProt P02340)
[2] = target: recombinant murine p53 (murine) (UniProt P02340)
[3] = target: recombinant murine p53 (murine) (UniProt P02340); remark: listed apart in the source

“murine p53 mutant with the double substitution M340Q/L344R (from UniProt P02340 1-390) (natural protein)” was tested, and the stoichiometry N [1] was 2 and 4.

A stoichiometry N [2] of 4 and a stoichiometry N [3] of 8 were found for “recombinant murine p53 (from UniProt P02340 1-390) (natural protein)” in this work.
